This note sets out measurements from PMC6572864, “Recombinant production, purification, crystallization, and structure analysis of human transforming growth factor β2 in a new conformation” (Scientific Reports, 2019).

The data set concerns the molecule itself. The experiment in a line: crystal structure; sitting-drop vapor diffusion, 20 °C, 20% isopropanol, 0.2 M calcium chloride, 0.1 M sodium acetate pH 4.6; space group P4(1)2(1)2, 2.0 Å; half a disulfide-linked dimer per asymmetric unit.

B1: human transforming growth factor β2, mature growth-factor moiety (GF) (ligand, UniProt P61812 303-414, looked up)
chain: ALDAAYCFRNVQDNCCLRPLYIDFKRDLGWKWIHEPKGYNANFCAGACPYLWSSDTQHSRVLSLYNTINPEASASPCCVSQDLEPLTILYYIGKTPKIEQLSNMIVKSCKCS
notes: human TGFβ2 growth-factor moiety, residues A303-S414 of the precursor (UniProt P61812), 112 residues, released by cleavage at R302-A303; Disulfide-linked homodimer (intermolecular disulfide C379-C379); The crystals came from octahistidine-tagged pro-TGFβ2 mixed with methylamine-induced hα2M; they also grew from pro-TGFβ2 alone; also called mature TGFβ2; TGFβ2 GF; source: purified together with …
Take B1: the “stoichiometry N” value was 2.
